# Patent US20020102706A1 (published 2002)
# Biological target: T1, Apo-2 ligand (soluble Apo-2L, Pitti et al.) (UniProt P50591 114-281)
# T1 construct: also called TRAIL; 125I-Apo-2L
# Experiment: 125I-Apo-2L binding to Apo-2DcR-transfected 293 cells; nonspecific binding with 0.5 ug/ml unlabeled Apo-2L
# Procedure: The effect of pre-treatment of the cells with phosphatidylinositol-specific phospholipase C (PI-PLC) on the binding was also analyzed.
# (1 μg/ml) was added to one of the two aliquots derived from each transfection, 5 and the cells were incubated 1 hour at 37° C. The cells were washed and respuspended in 1 ml PBS containing 1% BSA (Sigma), and 0.04 ml aliquots were placed into tubes in triplicate. […] After a 1 hour incubation at room temperature, the cells were washed in ice cold PBS, pelleted, and counted for radioactivity.
# T1 sequence (P50591 114-281 limits assumed): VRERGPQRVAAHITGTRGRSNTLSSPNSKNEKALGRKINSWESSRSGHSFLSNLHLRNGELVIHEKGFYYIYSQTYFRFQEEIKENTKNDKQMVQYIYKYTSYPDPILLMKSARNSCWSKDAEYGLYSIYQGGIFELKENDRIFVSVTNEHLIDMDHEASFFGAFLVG
binder,measurement,value
"full-length native sequence human Apo-2DcR (receptor, also called Apo-2DcR receptor; pRK5-hApo-2DcR product) ATTARQEEVPQQTVAPQQQRHSFKGEECPAGSHRSEHTGACNPCTEGVDYTNASNNEPSCFPCTVCKSDQKHKSSCTMTRDTVCQCKEGTFRNENSPEMCRKCSRCPSGEVQVSNCTSWDDIQCVEEFGANATVETPAAEETMNTSPGTPAPAAEETMNTSPGTPAPAAEETMTTSPGTPAPAAEETMTTSPGTPAPAAEETMTTSPGTPA",binding result,binds
